From a protein production outcome set (Wang et al. 2014)

assay: label from the status in PepcDB records
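Note: failed if final PepcDB status was selected cloned or expressed and not failed if soluble or beyond.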

Sequence	protein production
IAKNNYKELIQNIIEESYTDSQFTLSVLSEKLDLSSGYLSIMFKKNFGIPFQDYLLQKRMEKAKLLLLTTELKNYEIAEQVGFEDVNYFITKFKKYYQITPKQYREMVLKNE	failed
IARLDWSATPLGESGHWPQSLRTAVDIVIHSPMPMLLLWGAELTQIYNDGFALLAGNKHPSAFGHPAHLTWPELMDFTDPIYRAVLNGQVRTFSEQRFSLQRTNGSEYDLWLDLTYSPIRNERGDVAGILVTAIETNERRRIALELQQR	failed
IEGLFIFDRNQKCVYANHIALNLFGYTLEEVHSKSILDFIALGFRNKVKRFSQNRDQPPYEVLGIKNDGSLFPIMIRGKAIELG	failed
IFRVLDDVDTAVFNRVGTLTDGEMTVETVTADKGEDPELVLRVAGALAMESHHAISKALVKASREARDTGAGGEDVPHWIEVGNVEITEAGSFQATIELPLIKPSGEKIMRTTEALLWRPRSMTEVREHLSPRLVAAATSGGAPLIVRWKGKDRGVITLSDHVRSDSSDAIIAIEEQGIETMMLSRDTYPVARRYADSLGITHVLAGIAPGKKAQVVRAVHTRGSTVAMIGDESVMDCLKVADVGVLMGVDRPSDLRDDSDDPAADVVVMREEVMSVPTLFKLARRYAKLVNGNIALAWIYNGVAM	failed
IHYAGKILQERLVNPPSLMELAREIGINDHKLKVGFRQVFKTTVFGYLHDQRIERSRQLLESGEMTVTGAASAVGFANRGHFAAAFRRKFGINPSLYARQRKL	failed
IKSISKDYFDYLQTESKFIPLENETIEFYSPIVDYFGDSISVNISFSGDRYKLTDHGETLWNMEQLGIDLTSNKKQKKYQLLNNIVQNYSLVIENKHINFYTNRINLSQAIHDYVLAISEISYLGILKKENIKSLFKDEVMQYFLSNRKIYPNIFPEFKVEGKSKLIHSFEAVFPGEATEYVKTIKRIDKNNAKNVLFDWNDVEIHRNKNFDSNARLNIITEQQDDISEAVSTMLSQYNVEVFSFENKKQLEEKF	failed
IKVGKAKLLNQVLVNLPTSISQQTIAETDGDSAGSDSFPVGRTHHRWYLCHFGQSLIHVIQVVIGYFIMLAVMSYNTWIFLGVVLGSAVGYYLAYPLLSTA	not failed
ILFSVVIGSFTPAHPIASETNPKVENAKDAPEIEPFSEQAVEELHRQKKPLFIYFSADWCLTCKVNEKMAIDRDSTRQAFRQKGIVTLHGDWTNGDPEITHFLSKMHRSGIPLYLYYPADGEIQI	failed
IMAKTAKVAVSQIVEHPALDATRQGLLDGLKAKGYEEGKNLEFDYKTAQGNPAIAVQIARQFVGENPDVLVGIATPTAQALVSATKTIPIVFTAVTDPVGAKLVKQLEQPGKNVTGLSDLSPVEQHVELIKEILPNVKSIGVVYNPGEANAVSLMELLKLSAAKHGIKLVEATALKSADVQSATQAIAEKSDVIYALIDNTVASAIEGMIVAANQAKTPVFGAATSYVERGAIASLGFDYYQIGVQTADYVAAILEGKEPGSLDVQVAKGSDLVINKTAAEQLGITIPEAVLARATSTK	not failed
INVRLKFLNDTEELAVARPEDTVGTLKSKYFPGQESQMKLIYQGRLLQDPARTLSSLNITNNCVIHCHRSPPGAAVSGPSAS	not failed
IPELKDHLRIFRPRKLTLKGYRQHWVVFKETTLSYYKSQDEAPGDPIQQLNLKGCEVVPDVNVSGQKFCIKLLVPSPEGMSEIYLRCQDEQQYARWMAGCRLASKGRTMADSSYTSEVQAILAFLSLQRT	not failed
IPLKSIEVPFEGELLPGYAIISEDKAQDTLIVVGGGDTSREDLFYMLGYSGWEHDYNVLMVDLPGQGKNPNQGLHFEVDARAAISAILDWYQAPTEKIAIAGFSGGGYFTAQAVEKDKRIKAWIASTPIYDVAEVFRISFSTALKAPKTILKWGSKLVTSVNKVAEVNLNKYAWQFGQVDFITSVNEVLEQAQIVDYNKIDVPSLFLVGAGEDSELMRQSQVLYDNFKQRGIDVTLRKFSSESGADAHCQVNNFRLMHYQVFEWLNHIFKKKD	failed
IPVFNITSNRGRLLQQISVGDIWGVGRQWANKLISRGIHTAYDLAMTNPHLLKKCFNAVLMRTAMELQGIACGG	failed
IQHATASLIQTNTDQELLVVDVTPSFASLWLVPNINDFHQRHPNIRVKILTGDGAVKNIHGESDLHVRCLPLSTHYEYSQLLCEETLLLIGNTNLPKLSDNQAISHYPFIPQTTRPQLWEQFKQENDLECPITYHSVGFEHFYLACEAVRMEKGLALLPDFMAQFSILRGDIQHIGNLKLHSGYGYYVVIPNFRLTSRKVALFHDWLKDKLTHHT	not failed
IQNNEATLRCIVENLPIFFGMRTINFSNWYYINPSFESLTGYTPDEMYEDPLLWQKIHREEYAENLEQARPNLGEWTIFSMEKKDGTQIWAQTVEFLVDDLSDTARVVVFGQDITDIKRAEIETLRSLVKERELNEAKSQFVDIVSHEFRTPLTSIIGF	failed
ISLKYTAARLHEKGVLLEIEDLQVNQFKNVIFEISPTEEVGDFEVKAKFMGVQMETFMLHYQDLLQLQYEGVAVMKLFDRAKVNVNLLIFLLNKKFYGK	not failed
ITERHLIEESLKESQQRWEFALEGSGDGIWDWGVMEDRLFLSARLQEMFGYARGEMGESMEQASSFILKEDRARVLSTLYRFLKEGEGQYADEFRVNCKEGGYRWIFSRGMVVKRNAQGEAARMIGIFTDI	failed

Sequence	protein production
IVAQGEDFVVSGALNLSLIRERTGFQAKATEDYQTLAGLVMSLLDRLPSTGDSLSWQGWNLQVVGVEERRVTRVLLQKQPAASAGK	failed
IVMADWLKIRGTLKSWTKLWCVLKPGVLLIYKTQKNGQWVGTVLLNACEIIERPSKKDGFCFKLFHPLEQSIWAVKGPKGEAVGSITQPLPSSYLIIRATSESDGRCWMDALELALK	not failed
IVPDAQDLGKSYGIRPSFIIAQAALDSDFGEKILANKYHNLFGLLAEPGTPSITLNDSSTGKKQEKQFTHYKSWKYSMYDYLAHIKSGATGKKDSYTIMVSVKNPKTLVQKLQDSGFDNDKKYAKKMTEIIDLYDLTRYDK	failed
KALGSKEIPKGAENCLEGLIFVITGVLESIERDEAKSLIERYGGKVTGNVSKKTNYLVMGRDSGQSKSDKAAALGTKIIDEDGLLNLIRTMPGKKSKYEIAVETE	not failed
KAPLDEIADDSFWSDETLVKYYVNDLYSEISVDGLQLQENRSDNSVSAQRDKYRASWFKFNYDMVSASDPQDDDVWEDYYVKVRKCNRFFERIGTSTIEESEKSRLTGEVHFLRAMFYFEMVKRYGGVILLDKVLTMEDNWEIPRSSEKECYDFILEDLKKATEMLPASYGSREKGRATKGAAYALKSRVELYDKRYEDVIKSCAEVYKLGYELVDGTTPEKYRSIWWTTNKDNKEIIFDVQYKSPDVYNNMMVCNMVTYINDKYGDRGWGGLGPTQELIDAFEMADGTPATQYSQAPADQVFDINTCGIYEGREPRFYANIVFHGSQIFFNADKGAVTVDRYLMDTPDKGDGSLTGYNVWKWIDYDNYNYPYAGAGSPDFSTNWIILRYAEIYLNDAEARLETGDVEGARKAVNMIRQRVGLPDLTESDPEKLRELIRKERRIEFAFEEQRFYDVRRWKIGPETQTTLHGVRFVSPTEFKVTKTDIRTWNDRLYLTPVPHDEIVRSSVLKQNLGY	not failed
KDDDNVETGAFDPSKPVAISDFTPKEGGAYQKLLIYGENFGTDVSKVKVKIGGKDAIVINVKSTYVYCFVPSGAFSGEIEITVGEGENAVTTTASTTFSYEKKMVVGTLCGYRNNRDDQGWRDGPFDGPEGVKCCGFSDNGRLAFDPLNKDHLYICYDGHKAIQLIDLKNRMLSSPLNINTIPTNRIRSIAFNKKIEGYADEAEYMIVAIDYDGKGDESPSVYIIKRNADGTFDDRSDIQLIAAYKQCNGATIHPINGELYFNSYEKGQVFRLDLVDYFKTIKNGGSWDPIVKNNPNTFKQLFTIADPSWEFQIFIHPTGKYAYFGVINNHYFMRSDYDEIKKEFITPYNFVGGYKQSGYRDDVGTEARMNNPCQGVFVKNPDYTGEEEYDFYFVDRLNFCVRKVTPEGIVSTYAGRGASTSLADGNQWGTDDGDLREVARFRDVSGLVYDDVKEMFYVHDQVGHTIRTISMEQEENVAGDENIPEDESTVESNE	not failed
KELIQNIIEESYTDSQFTLSVLSEKLDLSSGYLSIMFKKNFGIPFQDYLLQKRMEKAKLLLLTTELKNYEIAEQVGFEDVNYFITKFKKYYQITPKQYRE	not failed
KFDSDIDEVVYGSRLIGSDPDLVLHGGGNTSVKTTERDHAGRIISVLRVKNSGSNLGTIDSRGFTGIRMDDALAAAKIDKMTDEAMVDYLKKSMVNPSEPSPSVETFLHAFLPYKFVMHSHADAILSITNTDLPSDQIAKILGNVVVLPYIPPGFTLAKEVMNCFKKGIDGIVLRKHGLLTFGDTGKEAYDRHINIVSRAENFIREKTDGK	not failed
KGESYKGKVAVASVVLNRTEKKGFPDTIRGVIYQKNAFEPVANGSINQKPDKESIEAAEEALSSKNRETDAIFFYNPKTASDNWIRSRKIVEKIGRHVFAV	not failed
KIADWLELHPAEKRKPWCVGIPRLAELAWQRVVAQRDTFGEAQLAHRIRDYLPEQGQLFVGNSLVVRLIDALSQLPAGYPVYSNRGASGIDGLLSTAAGVQRASAKSTLAIVGDLSALYDLNALALLRQVSAPFVLIVVNNNGGQIFSLLPTPQSKRERFYLMPQNVHFDHAAAMFNLRYHRPENWEELESALAGAWRTPATTVIELVVNDTDGAQTLQQLLAQVSHL	failed
KIIHIDCDCFYAALEMRDDPSLRGKALAVGGSPDKRGVVATCSYEARAYGVRSAMAMRTALKLCPDLLVVRPRFDVYRAVSKQIHAIFRDYTDLIEPLSLDEAYLDVSASPHFAGSATRIAQDIRRRVAEELHITVSAGVAPNKFLAKIASDWRKPDGLFVITPEQVDGFVAELPVAKLHGVGKVTAERLARMGIRTCADLRQGSKLSLVREFGSFGERLWGLAHGIDERPVEVDSRRQSVSVECTFDRDLPDLAACLEELPTLLEELDGRLQRLDGSYRPDKPFVKLKFHDFTQTTVEQSGAGRDLESYRQLLGQAFARGNRPVRLIGVGVRLLDLQGAHEQLR	failed
KKGRFRERYSTRILDALPDMLTVFDHNANIVELASSPTTNHVEGTTSDSIINSNVKDIVPEEAYESVRHNMDKVIHTGKSSTAEHSLMLDGVLHHYENRIFPLDDQYLLCMCRDVS	failed
KKPEGKPDQKFDQKQELGRVIHLSNLPHSGYSDSAVLKLAEPYGKIKNYILMRMKSQAFIEMETREDAMAMVDHCLKKALWFQGRCVKVDLSEKYKKLV	not failed
KKYSYAVTTCIKHINKNVYDGISLNELANHLEITPTYLSKLFKKEMGITLSEYIQRERVEEAKKLLTLTTYSLSDICAWLNFNDQSYFIRVFKKITSMTPRQYREKYTV	failed
KLGMKPVSDVSRVTIKRAKNVLFVISKPDVYKSPNAETYVIFGEAKVDDLSSQLQTQAAQRFKMPDVTSMLPNAGSEATMAPLAEEEDEDDVDDTGVEARDIDLVMTQAGVSKAKAVSALKANDGDIVSAIMELTT	failed
KLLAEALELTEDQYVVSFQSQFGRAKWVTPSTQDLFGKLPKQGVTELDVFCPGFLADCLETMEEIALMGREQFYEAGGKSYRYIPCLNDNPDWIDALVALAEENLGSWR	failed
KLPFDYQVNSTRHFMRELNRLGVTGAIDAGGGFQNYPDDYAVIQKLDEEGLLTIRLAYNLFTQKPKGEKDDFLNWTKTSKYKQGNDYFRHNGAGEMLVFSAADFEDFRVPRPDMPPEMEGELEEVVRILVQNKWPWRLHATYDETISRALDVFEKVNQDTPLDGLHWFFDHAETISDRSIDRIAALGGGIAVQHRMAYQGEYFVERYGFGAAEATPPVRRILDSGVKVSAGTDATRVASYNPWVSLSWLVTGRTVGGLRITPQRNCLDRETALRMWTENVTWFSNEEGN	failed
